In article PMC11926106 one finds stoichiometry N data, which are given here for one substance.

One may read the stoichiometry N as the number of molecules, sites or subunits per partner or assembly.

“And” between values parts separate entries of the source, which are not always exact repeats. Equal entries are not always repeated.

In assay [1] the target is glycinin (soybean). Description: mass photometry; label-free glycinin 0.48 µg/mL adsorbed on a supported lipid bilayer of DOPC, 20 mM NaCl, 5 min incubation; oligomers counted among the membrane-adsorbed particles.
For assay [2], the target named is glycinin (soybean). Description: mass photometry; label-free glycinin 0.48 µg/mL adsorbed on a supported lipid bilayer of DOPC, 365 mM NaCl, 5 min incubation; oligomers counted among the membrane-adsorbed particles.

Sequence of glycinin (P04776 20-495): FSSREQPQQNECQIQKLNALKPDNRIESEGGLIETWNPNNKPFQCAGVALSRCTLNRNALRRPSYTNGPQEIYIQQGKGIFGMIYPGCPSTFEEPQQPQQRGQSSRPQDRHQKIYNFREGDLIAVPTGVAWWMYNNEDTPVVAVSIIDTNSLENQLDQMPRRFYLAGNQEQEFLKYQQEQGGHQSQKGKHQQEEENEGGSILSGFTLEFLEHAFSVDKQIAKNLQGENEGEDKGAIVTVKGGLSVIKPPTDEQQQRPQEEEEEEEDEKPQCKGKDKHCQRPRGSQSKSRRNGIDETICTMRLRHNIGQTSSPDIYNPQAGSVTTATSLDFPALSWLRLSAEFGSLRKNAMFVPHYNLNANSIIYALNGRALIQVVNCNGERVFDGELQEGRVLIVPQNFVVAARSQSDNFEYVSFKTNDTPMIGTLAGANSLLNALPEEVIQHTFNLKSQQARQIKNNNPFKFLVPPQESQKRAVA

Take glycinin (natural protein): the stoichiometry N with glycinin (soybean) [1] is 3 and 6; in the assay with glycinin (soybean) [2], 9.
